Source: the supplement of paper PMC9233669
Fewer inactive variants are shown than the library holds.

What was measured:
[1] = test system: biotinyl-Ile-oxazolone; assay: self-aminoacylation, catalytic enhancement (BIO) (fold over background); higher = more active; k-Seq, kA / k0A0; sequences stand for … in GGGAAUGGAUCCACAUCUACGAAUUC…UUCACUGCAGACUUGACGAAGCUG
Outline: (§1)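 The uncatalyzed rate is the low-activity peak of a bimodal Gaussian fit, and catalytic enhancement is median kA divided by it. The kA values came from pseudo-first-order fits, with 1000 bootstraps, of per-sequence fraction reacted measured by streptavidin capture, triplicate qPCR and Illumina sequencing. Mutagenized RNA pools with a 21-nt variable region (0.43 μM) were reacted with each biotinyl-aminoacyl-oxazolone at 2–1250 μM in 50 μL HEPES/NaCl/KCl/MgCl2/CaCl2 buffer with 5% acetonitrile, pH 6.9–7.0, for 90 minutes at room temperature.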

[2] = test system: biotinyl-Phe-oxazolone; assay: self-aminoacylation, catalytic enhancement (BFO) (fold over background); higher = more active; k-Seq, kA / k0A0; sequences stand for … in GGGAAUGGAUCCACAUCUACGAAUUC…UUCACUGCAGACUUGACGAAGCUG
Outline: as §1

[3] = test system: biotinyl-Met-oxazolone; assay: self-aminoacylation, catalytic enhancement (BMO) (fold over background); higher = more active; k-Seq, kA / k0A0; sequences stand for … in GGGAAUGGAUCCACAUCUACGAAUUC…UUCACUGCAGACUUGACGAAGCUG
Outline: as §1

[4] = test system: biotinyl-Val-oxazolone; assay: self-aminoacylation, catalytic enhancement (BVO) (fold over background); higher = more active; k-Seq, kA / k0A0; sequences stand for … in GGGAAUGGAUCCACAUCUACGAAUUC…UUCACUGCAGACUUGACGAAGCUG
Outline: as §1

[5] = test system: biotinyl-Trp-oxazolone; assay: self-aminoacylation, catalytic enhancement (BWO) (fold over background); higher = more active; k-Seq, kA / k0A0; sequences stand for … in GGGAAUGGAUCCACAUCUACGAAUUC…UUCACUGCAGACUUGACGAAGCUG
Outline: as §1

[6] = test system: biotinyl-Leu-oxazolone; assay: self-aminoacylation, catalytic enhancement (BLO) (fold over background); higher = more active; k-Seq, kA / k0A0; sequences stand for … in GGGAAUGGAUCCACAUCUACGAAUUC…UUCACUGCAGACUUGACGAAGCUG
Outline: as §1

| Sequence | self-aminoacylation [1] | self-aminoacylation [2] | self-aminoacylation [3] | self-aminoacylation [4] | self-aminoacylation [5] | self-aminoacylation [6] |
| --- | --- | --- | --- | --- | --- | --- |
| AUUUACCUAGGUCAACGGGUG [Fam2.2 aminoacylation ribozyme variant] | 2.56 | 29.2 | 4.05 | 2.26 | 3.56 | 4.95 |
| AUUUACCUAGGUCAUCGAGUG [Fam2.2 aminoacylation ribozyme variant] | 6.62 | 18.5 | 9.76 | 5.4 | 5.73 | 12.7 |
| AUUUACCUAGGUCAUCGGAUG [Fam2.2 aminoacylation ribozyme variant] | 0.906 | 0.723 | 0.954 | 0.974 | 0.671 | 0.846 |
| AUUUACCUAGGUCAUCGUGUG [Fam2.2 aminoacylation ribozyme variant] | 0.874 | 1.75 | 0.995 | 0.953 | 0.691 | 1.18 |
| AUUUACCUAGGUCCUCGGGUG [Fam2.2 aminoacylation ribozyme variant] | 3.33 | 28.6 | 4.15 | 3.3 | 4.31 | 6.13 |
| AUUUACCUAGGUUAUCGGGUG [Fam2.2 aminoacylation ribozyme variant] | 2.29 | 23.2 | 3.44 | 2.4 | 3.72 | 3.48 |
| AUUUACCUCGGUCAUCGGGUG [Fam2.2 aminoacylation ribozyme variant] | 4.06 | 54.6 | 6.78 | 4.9 | 7.01 | 8.51 |
| AUUUACCUGGGUCAUCGGGUG [Fam2.2 aminoacylation ribozyme variant] | 8.99 | 57.3 | 18.5 | 10.3 | 17.2 | 22.1 |
| AUUUCCCUAGGUCAUCGGGUG [Fam2.2 aminoacylation ribozyme variant] | 6.29 | 70.4 | 10.3 | 6.97 | 9.73 | 13.5 |
| AUUUCCCUGGACAUCGAGUGA [Fam2.1 aminoacylation ribozyme variant] | 2.83 | 41.7 | 6.51 | 3.54 | 8.11 | 5.46 |
| AUUUCCCUGGUCAUCGAGUGC [Fam2.1 aminoacylation ribozyme variant] | 1.1 | 2.11 | 1.86 | 1.08 | 1.21 | 1.59 |
| AUUUCCCUGGUCAUCUAGUGA [Fam2.1 aminoacylation ribozyme variant] | 4.45 | 76.6 | 8.93 | 4.67 | 11.7 | 9.47 |
| AUUUCCGUGGUCAUCGAGUGA [Fam2.1 aminoacylation ribozyme variant] | 3.67 | 52.8 | 6.67 | 4.26 | 8.19 | 6.35 |
| AUUUCCUUGGUCAUCGAGUGA [Fam2.1 aminoacylation ribozyme variant] | 4.35 | 43.8 | 8.2 | 4.63 | 11.1 | 8.92 |
| AUUUGCCUGGUCAUCGAGUGA [Fam2.1 aminoacylation ribozyme variant] | 4.47 | 13.1 | 8 | 4.54 | 9.16 | 8.2 |
| AUUUUUGCUAAUAGUCGCAAG [Fam3.1 aminoacylation ribozyme variant] | 1.37 | 1.71 | 1.07 | 1.02 | 1.02 | 0.994 |
| CAACAAUUCAAGCAAUCGGUC [Fam1B.1 aminoacylation ribozyme variant] | 1.16 | 1.71 | 1.1 | 0.937 | 1.31 | 1.01 |
| CAACACUCCAAGCAAUCGGUC [Fam1B.1 aminoacylation ribozyme variant] | 1.13 | 1.67 | 1.02 | 1.06 | 1.77 | 0.956 |
| CAACACUGCAAGCAAUCGGUC [Fam1B.1 aminoacylation ribozyme variant] | 1.12 | 0.892 | 1.3 | 1.24 | 0.788 | 1.46 |
| CAACACUUCAAGCAACCGGUC [Fam1B.1 aminoacylation ribozyme variant] | 1 | 1.59 | 1.12 | 0.998 | 0.754 | 1.2 |
| CAACACUUCAAGCUAUCGGUC [Fam1B.1 aminoacylation ribozyme variant] | 1.2 | 0.964 | 1.03 | 1.05 | 1.02 | 0.89 |
| CAACACUUCAGGCAAUCGGUC [Fam1B.1 aminoacylation ribozyme variant] | 1.43 | 1.27 | 1.12 | 1.19 | 1.3 | 1.34 |
| CAACUUAAAACAAUCGGUCUG [Fam1A.1 aminoacylation ribozyme variant] | 0.984 | 1.71 | 1.09 | 1.14 | 0.948 | 1.11 |
| CAACUUCAAACAAUCGGUUUG [Fam1A.1 aminoacylation ribozyme variant] | 1.51 | 87.8 | 1.71 | 1.62 | 44 | 2.6 |
| CAACUUCAAACAAUCGUUCUG [Fam1A.1 aminoacylation ribozyme variant] | 0.675 | 1.83 | 0.624 | 0.734 | 1.03 | 0.728 |
| CAACUUCAAACAAUGGGUCUG [Fam1A.1 aminoacylation ribozyme variant] | 1.21 | 2.23 | 0.966 | 0.929 | 0.937 | 1.06 |

| Sequence | self-aminoacylation [1] | self-aminoacylation [2] | self-aminoacylation [3] | self-aminoacylation [4] | self-aminoacylation [5] | self-aminoacylation [6] |
| --- | --- | --- | --- | --- | --- | --- |
| CAACUUCAAACAGUCGGUCUG [Fam1A.1 aminoacylation ribozyme variant] | 1.21 | 5.76 | 1.2 | 1.19 | 0.928 | 1.08 |
| CAACUUCAAACCAUCGGUCUG [Fam1A.1 aminoacylation ribozyme variant] | 1.06 | 1.41 | 0.913 | 1.1 | 1.14 | 1.07 |
| CAACUUCAACCAAUCGGUCUG [Fam1A.1 aminoacylation ribozyme variant] | 1.37 | 66.9 | 1.67 | 1.61 | 33.2 | 2.41 |
| CAACUUCAUACAAUCGGUCUG [Fam1A.1 aminoacylation ribozyme variant] | 1.06 | 1.65 | 0.861 | 0.962 | 0.771 | 1.04 |
| CAACUUCCAACAAUCGGUCUG [Fam1A.1 aminoacylation ribozyme variant] | 1.13 | 1.69 | 1.15 | 0.929 | 1.14 | 0.985 |
| CAGCACUUCAAGCAAUCGGUC [Fam1B.1 aminoacylation ribozyme variant] | 1.67 | 34.4 | 1.79 | 1.55 | 22.1 | 2.33 |
| CAGUGUGCUAAUAGUCGCAAG [Fam3.1 aminoacylation ribozyme variant] | 1.51 | 1.76 | 1.58 | 1.46 | 1.59 | 1.46 |
| CAGUUUGCAAAUAGUCGCAAG [Fam3.1 aminoacylation ribozyme variant] | 1.72 | 2.37 | 1.65 | 1.52 | 2.02 | 2.03 |
| CAGUUUGCUAAUAAUCGCAAG [Fam3.1 aminoacylation ribozyme variant] | 0.97 | 1.1 | 1 | 1.03 | 0.939 | 0.99 |
| CAGUUUGCUAAUAGCCGCAAG [Fam3.1 aminoacylation ribozyme variant] | 1.86 | 1.44 | 1.26 | 1.46 | 1.07 | 1.69 |
| CAGUUUGCUAAUAGUAGCAAG [Fam3.1 aminoacylation ribozyme variant] | 1.26 | 2.46 | 1.58 | 1.04 | 1.65 | 1.5 |
| CAGUUUGCUAAUAGUCGCACG [Fam3.1 aminoacylation ribozyme variant] | 1.3 | 1.25 | 1.1 | 1.05 | 1.46 | 1.35 |
| CAGUUUGCUAAUAGUUGCAAG [Fam3.1 aminoacylation ribozyme variant] | 1.53 | 1.55 | 1.44 | 1.23 | 1.18 | 1.5 |
| CAGUUUGCUAUUAGUCGCAAG [Fam3.1 aminoacylation ribozyme variant] | 1.24 | 1.88 | 1.25 | 1.22 | 1.29 | 1.5 |
| CCAAACCUCAAGCAAUCGGUC [Fam1B.1 aminoacylation ribozyme variant] | 1.35 | 1.54 | 1.12 | 1.29 | 1.22 | 1.27 |
| CCAAACUUCAAACAAUCGGUC [Fam1B.1 aminoacylation ribozyme variant] | 1.35 | 86.6 | 1.53 | 1.52 | 42 | 2.21 |
| CCAAACUUCAAGCAAACGGUC [Fam1B.1 aminoacylation ribozyme variant] | 0.832 | 0.911 | 0.699 | 0.846 | 0.811 | 0.607 |
| CCAAACUUCAAGCAAUUGGUC [Fam1B.1 aminoacylation ribozyme variant] | 0.759 | 1.1 | 0.81 | 0.828 | 0.886 | 0.767 |
| CCAAACUUCAAGCCAUCGGUC [Fam1B.1 aminoacylation ribozyme variant] | 1.15 | 1.07 | 1.28 | 1.18 | 1.01 | 1.03 |
| CCAAACUUCAAGCGAUCGGUC [Fam1B.1 aminoacylation ribozyme variant] | 1.1 | 1.09 | 1.11 | 1.35 | 1.25 | 1.32 |
| CCAAACUUUAAGCAAUCGGUC [Fam1B.1 aminoacylation ribozyme variant] | 1.11 | 0.824 | 0.869 | 0.993 | 0.664 | 0.846 |
| CCACAAUGCAAGCAAUCGGUC [Fam1B.1 aminoacylation ribozyme variant] | 1.48 | 1.02 | 1.22 | 1.41 | 0.93 | 1.01 |
| CCACAAUUCAAGAAAUCGGUC [Fam1B.1 aminoacylation ribozyme variant] | 0.949 | 1.38 | 0.78 | 0.906 | 1.41 | 0.866 |
| CCACACAGCAAGCAAUCGGUC [Fam1B.1 aminoacylation ribozyme variant] | 0.864 | 1.35 | 0.699 | 1.11 | 0.608 | 0.787 |
| CCACACAUCAAGCAAGCGGUC [Fam1B.1 aminoacylation ribozyme variant] | 0.968 | 0.546 | 0.779 | 1.03 | 0.988 | 0.901 |
